Measurements published in patent publication US20140348834A1 (published 2014).

Tests used:
human IL-17A [1] = target: T1, human IL-17A (human, UniProt Q16552 24-155); experiment: hIL17A ELISA
T1 construct: Recombinant; biotinylated in the ELISA; also called hIL-17; hIL17A
T1 sequence (Q16552 24-155): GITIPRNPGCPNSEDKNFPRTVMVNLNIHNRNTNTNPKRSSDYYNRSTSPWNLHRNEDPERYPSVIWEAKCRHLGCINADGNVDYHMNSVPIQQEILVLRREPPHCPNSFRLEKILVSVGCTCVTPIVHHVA

human IL-17A/F = target: T2, human IL-17A/F (human, UniProt Q16552 24-155; Q96PD4 31-163); experiment: SPR Biacore, captured binder
T2 construct: Heterodimer of IL-17A and IL-17F, purified recombinant; also called HuIL-17A/F; Hu IL-17A/F
Protocol: (§1) The binding of antibodies to purified recombinant human, cyno, rat, mouse, rabbit IL-17 and human IL-17A/F were determined by surface plasmon resonance-based measurements with a Biacore® 3000 instrument (Biacore® AB, Uppsala, Sweden) using running HBS-EP (10 mM HEPES [pH 7.4], 150 mM NaCl, 3 mM EDTA, and 0.005% surfactant P20) at 25° C. […] Approximately 5000 RU of goat anti-mouse or anti-human IgG (Fcγ) fragment specific polyclonal antibody (Pierce Biotechnology Inc, Rockford, Ill.) diluted in 10 mM sodium acetate (pH 4.5) was directly immobilized across a CM5 research grade biosensor chip using a standard amine coupling kit according to manufacturer's instructions and procedures at 25 μg/ml. Unreacted moieties on the biosensor surface were blocked with ethanolamine. Modified carboxymethyl dextran surface in flowcell 2 and 4 was used as a reaction surface. Unmodified carboxymethyl dextran without goat anti-mouse or anti-human IgG in flow cell 1 and 3 was used as the reference surface. For kinetic analysis, rate equations derived from the 1:1 Langmuir binding model were fitted simultaneously to association and dissociation phases of all eight injections (using global fit analysis) with the use of Biaevaluation 4.0.1 software. Purified antibodies were diluted in HEPES-buffered saline for capture across goat anti-mouse or anti-human IgG specific reaction surfaces. Antibodies to be captured as a ligand (25 μg/ml) were injected over reaction matrices at a flow rate of 5 μl/min. The association and dissociation rate constants, kon (unit M-1s-1) and koff (unit s-1) were determined under a continuous flow rate of 25 μl/min. Rate constants were derived by making kinetic binding measurements at ten different antigen concentrations ranging from 10 nM to 200 nM. The equilibrium dissociation constant (unit M) of the reaction between antibodies and recombinant purified IL-17 antigens was then calculated from the kinetic rate constants by the following formula: KD=koff/kon. Binding was recorded as a function of time and kinetic rate constants are calculated. In this assay, on-rates as fast as 10⁶ M⁻¹ s⁻¹ and off-rates as slow as 10⁻⁶ s⁻¹ can be measured.

human IL-17A [2] = target: T3, human IL-17A (human, UniProt Q16552 24-155); experiment: SPR Biacore, captured binder
T3 construct: Purified recombinant; biotinylated in the ELISA; also called HuIL-17A; Hu IL-17A
T3 sequence (Q16552 24-155 limits assumed): as the sequence (Q16552 24-155) above
Protocol: as §1

cyno IL-17A = cyno IL-17A (cynomolgus monkey, UniProt A0A2K5TTB0 24-155); experiment: SPR Biacore, captured binder
Sequence of cyno IL-17A (A0A2K5TTB0 entry or part of it): as the sequence (Q16552 24-155) above, with T3A, P8S, N34S, I77V, N78K, P104R counted along it
Protocol: as §1

T2 sequence (Q16552 24-155 limits assumed, chain 1 of 2): as the sequence (Q16552 24-155) above
T2 sequence (Q96PD4 31-163 limits assumed, chain 2 of 2): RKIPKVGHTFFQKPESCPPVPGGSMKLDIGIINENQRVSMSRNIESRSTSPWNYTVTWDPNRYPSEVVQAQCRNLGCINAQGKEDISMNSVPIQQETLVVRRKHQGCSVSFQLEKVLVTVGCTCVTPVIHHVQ

Row | Binder | EC50 (human IL-17A [1]) [nM] | further results
1 | IL17-h10F7.5 (antibody, V domains shown, IgG; constant regions not specified) VH: EVQLVQSGAEVKKPGSSVKVSCKASGYTFTDYEIHWVRQAPGQGLEWMGVNDPESGGTFYNQKFDGRVTITADKSTSTAYMELSSLRSEDTAVYYCARYYRYESFYGMDYWGQGTTVTVSS VL: DIQLTQSPSSLSASVGDRVTITCSASSSISYIYWFQQKPGKSPKRWIYATFELASGVPSRFSGSGSGTDYTLTISSLQPEDFATYYCHQRSSYPWTFGQGTKLEIKR | 0.06 | 
2 | IL17-h10F7.10 (antibody, V domains shown, IgG; constant regions not specified) VH: EVQLVQSGAEVKKPGSSVKVSCKASGYTFTDYEIHWVRQAPGQGLEWMGVNDPESGGTFYNQKFDGRVTITADKSTSTAYMELSSLRSEDTAVYYCARYYRYESFYGMDYWGQGTTVTVSS VL: EIVLTQSPDFQSVTPKEKVTITCSASSSISYIYWFQQKPDQSPKRWIYATFELASGVPSRFSGSGSGTDYTLTINSLEAEDAATYYCHQRSSYPWTFGQGTKLEIKR | 0.04 | 
3 | IL17-TN-L7-G9 (antibody, V domains shown, Fully human antibody) VH: EVQLLESGGGVVQPGRSLRLSCAASGFIFSNYGMHWVRQAPGKGLEWVAVISYDGSNKYYADSVKGRFTISRDNSKNTLYLEMNSLRPEDTAVYYCAKVGASGDYYYSYGLDVWGQGTTVTVSS VL: QSGLTQPPSASGTPGQTVSISCSGSNSNIGSHSVNWYQQVPGAAPKLLMYGIGQRPSGVPDRFSVSQSGTSASLAISGLQSEDEADYYCATWDDSLGGYVFGSGTKVTVLG |  | Kd (human IL-17A/F): 0.907 nM; koff (human IL-17A/F): 9.7e-05 s⁻¹; kon (human IL-17A/F): 107000 M⁻¹ s⁻¹; Kd (human IL-17A [2]): 0.28 nM; koff (human IL-17A [2]): 8.65e-05 s⁻¹; kon (human IL-17A [2]): 309000 M⁻¹ s⁻¹; Kd (cyno IL-17A): 2.07 nM; koff (cyno IL-17A): 0.000199 s⁻¹; kon (cyno IL-17A): 96000 M⁻¹ s⁻¹
4 | IL17-G9-1 (antibody, V domains shown) VH: EVQLLESGGGVVQPGRSLRLSCAASGFIFSNYGMHWVRQAPGKGLEWVAVISYDGSNKYYADSVKGRFTISRDNSKNTLYLEMNSLRPEDTAVYYCAKVGASGDYYYSYGLDVWGQGTTVTVSS VL: QSVLTQPPSASGTPGQTVSISCSGSHSNIGRHPVDWYQQVPGAAPKLLMYYGGYRPSGVPDRFSGSQSGTSASLAISGLQSEDEADYYCATWDDRLVGYVFGSGTKVTVLG |  | Kd (human IL-17A/F): 0.00313 nM; koff (human IL-17A/F): 1e-06 s⁻¹; kon (human IL-17A/F): 320000 M⁻¹ s⁻¹; Kd (human IL-17A [2]): 0.0257 nM; koff (human IL-17A [2]): 1.05e-05 s⁻¹; kon (human IL-17A [2]): 408000 M⁻¹ s⁻¹; Kd (cyno IL-17A): 0.00296 nM; koff (cyno IL-17A): 1e-06 s⁻¹; kon (cyno IL-17A): 338000 M⁻¹ s⁻¹
5 | IL17-h5C5.13 (antibody, V domains shown, IgG; constant regions not specified) VH: QVQLQQSGAELVRPGASVKLSCKALGYTFTDYEFHWVKQTPVHGLEWIGVIHPGNGGTAYNQNFRDKATLTADKSSSTAYMELSSLTSEDSGVYYCTRFLTYEGYFDYWGQGTALTVSS VL: EIVMTQSPATLSVSPGERATLSCKASQSVSIDVGWFQQKPGQSPRLLIYHASNRYTGVPARFSGSGSGTDFTLTISSLQPEDFAVYFCQQDYSSPYTFGQGTKLEIKR | 0.03 | 
6 | IL17-h5C5.6 (antibody, V domains shown, IgG; constant regions not specified) VH: EVQLVQSGAEVKKPGASVKVSCKASGYTFTDYEFHWVRQAPGQGLEWIGVIHPGNGGTAYNQNFRDRATLTADKSTSTAYMELSSLRSEDTAVYYCTRFLTYEGYFDYWGQGTLVTVSS VL: DIQMTQSPSSLSASVGDRVTITCKASQSVSIDVGWYQQKPGKAPKLLIYHASNRYTGVPSRFSGSGSGTDFTFTISSLQPEDFATYYCQQDYSSPYTFGQGTKLEIKR | 0.11 | 
7 | IL17-h5C5.5 (antibody, V domains shown, IgG; constant regions not specified) VH: EVQLVQSGAEVKKPGASVKVSCKASGYTFTDYEFHWVRQAPGQGLEWMGVIHPGNGGTAYNQNFRDRVTITADKSTSTAYMELSSLRSEDTAVYYCARFLTYEGYFDYWGQGTLVTVSS VL: DIQMTQSPSSLSASVGDRVTITCKASQSVSIDVGWYQQKPGKAPKLLIYHASNRYTGVPSRFSGSGSGTDFTFTISSLQPEDFATYYCQQDYSSPYTFGQGTKLEIKR | 0.05 | 
8 | IL17-h5C5.10 (antibody, V domains shown, IgG; constant regions not specified) VH: QVQLQQSGAELVRPGASVKLSCKALGYTFTDYEFHWVKQTPVHGLEWIGVIHPGNGGTAYNQNFRDKATLTADKSSSTAYMELSSLTSEDSGVYYCTRFLTYEGYFDYWGQGTALTVSS VL: EIVMTQSPATLSVSPGERATLSCKASQSVSIDVGWYQQKPGQAPRLLIYHASNRYTGIPARFSGSGSGTDFTLTISSLQPEDFAVYYCQQDYSSPYTFGQGTKLEIKR | 0.05 | 
9 | IL17-h5C5.1 (antibody, V domains shown, IgG; constant regions not specified) VH: QVQLQQSGAELVRPGASVKLSCKALGYTFTDYEFHWVKQTPVHGLEWIGVIHPGNGGTAYNQNFRDKATLTADKSSSTAYMELSSLTSEDSGVYYCTRFLTYEGYFDYWGQGTALTVSS VL: NIVMTQTPKFLLVSPGDRVTITCKASQSVSIDVGWFQQKPGQSPKLLIYHASNRYTGVPDRFTGSGYGTDFTFTVNTVQAEDLAVYFCQQDYSSPYTFGGGTKLELKR | 1 | 
10 | IL17-h5C5.7 (antibody, V domains shown, IgG; constant regions not specified) VH: QVQLQQSGAELVRPGASVKLSCKALGYTFTDYEFHWVKQTPVHGLEWIGVIHPGNGGTAYNQNFRDKATLTADKSSSTAYMELSSLTSEDSGVYYCTRFLTYEGYFDYWGQGTALTVSS VL: DIQMTQSPSSLSASVGDRVTITCKASQSVSIDVGWFQQKPGKSPKLLIYHASNRYTGVPSRFSGSGSGTDFTFTISSLQPEDFATYFCQQDYSSPYTFGQGTKLEIKR | 0.03 | 

The next lines start with results.

Row | EC50 (human IL-17A [1]) [nM] | Binder | further results
11 | 1.7 | IL17-h10F7.1 (antibody, V domains shown, Cloned into IgG expression vectors; constant regions not specified) VH: EVQLVQSGAEVKKPGSSVKVSCKASGYTFTDYEIHWVRQAPGQGLEWIGVNDPESGGTFYNQKFDGRATLTADKSTSTAYMELSSLRSEDTAVYYCTRYYRYESFYGMDYWGQGTTVTVSS VL: QIVLTQSPAIMSASPGEKVTMTCSASSSISYIYWFQQKPGTSPKRWIYATFELASGVPARFSGSGSGTSYSLTISSMEAEDAATYYCHQRSSYPWTFGGGSKLEIKR | 
12 | 3.9 | IL17-h10F7.8 (antibody, V domains shown, IgG; constant regions not specified) VH: EVQLVQSGAEVKKPGSSVKVSCKASGYTFTDYEIHWVRQAPGQGLEWIGVNDPESGGTFYNQKFDGRATLTADKSTSTAYMELSSLRSEDTAVYYCTRYYRYESFYGMDYWGQGTTVTVSS VL: EIVLTQSPDFQSVTPKEKVTITCSASSSISYIYWYQQKPDQSPKLLIKATFELASGVPSRFSGSGSGTDFTLTINSLEAEDAATYYCHQRSSYPWTFGQGTKLEIKR | 
13 | 0.09 | IL17-h10F7.16 (antibody, V domains shown, IgG; constant regions not specified) VH: EVQLVQSGAEVKKPGSSVKVSCKASGYTFTDYEIHWVRQAPGQGLEWMGVNDPESGGTFYNQKFDGRVTITADKSTSTAYMELSSLRSEDTAVYYCARYYRYESFYGMDYWGQGTTVTVSS VL: QIVLTQSPDFQSVTPKEKVTITCSASSSISYIYWFQQKPDQSPKRWIYATFELASGVPSRFSGSGSGTDYTLTINSLEAEDAATYYCHQRSSYPWTFGQGTKLEIKR | 
14 | 0.05 | IL17-h10F7.3 (antibody, V domains shown, IgG; constant regions not specified) VH: EVQLVQSGAEVKKPGSSVKVSCKASGYTFTDYEIHWVRQAPGQGLEWIGVNDPESGGTFYNQKFDGRATLTADKSTSTAYMELSSLRSEDTAVYYCTRYYRYESFYGMDYWGQGTTVTVSS VL: DIQMTQSPSSLSASVGDRVTITCSASSSISYIYWYQQKPGKAPKRLIYATFELASGVPSRFSGSGSGTDFTLTISSLQPEDFATYYCHQRSSYPWTFGQGTKLEIKR | 
15 | 0.05 | IL17-h10F7.7 (antibody, V domains shown, IgG; constant regions not specified) VH: EVQLVQSGAEVKKPGSSVKVSCKASGYTFTDYEIHWVRQAPGQGLEWMGVNDPESGGTFYNQKFDGRVTITADKSTSTAYMELSSLRSEDTAVYYCARYYRYESFYGMDYWGQGTTVTVSS VL: EIVLTQSPDFQSVTPKEKVTITCSASSSISYIYWYQQKPDQSPKLLIKATFELASGVPSRFSGSGSGTDFTLTINSLEAEDAATYYCHQRSSYPWTFGQGTKLEIKR | 
16 | 0.13 | IL17-h10F7.14 (antibody, V domains shown, IgG; constant regions not specified) VH: EVQLVQSGAEVKKPGSSVKVSCKASGYTFTDYEIHWVRQAPGQGLEWMGVNDPESGGTFYNQKFDGRVTITADKSTSTAYMELSSLRSEDTAVYYCARYYRYESFYGMDYWGQGTTVTVSS VL: EIVLTQSPSSLSASVGDRVTITCSASSSISYIYWFQQKPGKSPKRWIYATFELASGVPSRFSGSGSGTDYTLTISSLQPEDFATYYCHQRSSYPWTFGQGTKLEIKR | 
17 | 0.14 | IL17-h10F7.12 (antibody, V domains shown, IgG; constant regions not specified) VH: EVQLVQSGAEVKKPGSSVKVSCKASGYTFTDYEIHWVRQAPGQGLEWMGVNDPESGGTFYNQKFDGRVTITADKSTSTAYMELSSLRSEDTAVYYCARYYRYESFYGMDYWGQGTTVTVSS VL: QIVLTQSPSSLSASVGDRVTITCSASSSISYIYWFQQKPGKSPKRWIYATFELASGVPSRFSGSGSGTDYTLTISSLQPEDFATYYCHQRSSYPWTFGQGTKLEIKR | 
18 | 0.23 | IL17-h5C5.12 (antibody, V domains shown, IgG; constant regions not specified) VH: EVQLVQSGAEVKKPGASVKVSCKASGYTFTDYEFHWVRQAPGQGLEWIGVIHPGNGGTAYNQNFRDRATLTADKSTSTAYMELSSLRSEDTAVYYCTRFLTYEGYFDYWGQGTLVTVSS VL: EIVMTQSPATLSVSPGERATLSCKASQSVSIDVGWYQQKPGQAPRLLIYHASNRYTGIPARFSGSGSGTDFTLTISSLQPEDFAVYYCQQDYSSPYTFGQGTKLEIKR | 
19 | 0.03 | IL17-h5C5.17 (antibody, V domains shown, IgG; constant regions not specified) VH: EVQLVQSGAEVKKPGASVKVSCKASGYTFTDYEFHWVRQAPGQGLEWMGVIHPGNGGTAYNQNFRDRVTITADKSTSTAYMELSSLRSEDTAVYYCARFLTYEGYFDYWGQGTLVTVSS VL: NIVMTQSPSSLSASVGDRVTITCKASQSVSIDVGWFQQKPGKSPKLLIYHASNRYTGVPSRFSGSGSGTDFTFTISSLQPEDFATYFCQQDYSSPYTFGQGTKLEIKR | 
20 | 0.02 | IL17-h5C5.16 (antibody, V domains shown, IgG; constant regions not specified) VH: QVQLQQSGAELVRPGASVKLSCKALGYTFTDYEFHWVKQTPVHGLEWIGVIHPGNGGTAYNQNFRDKATLTADKSSSTAYMELSSLTSEDSGVYYCTRFLTYEGYFDYWGQGTALTVSS VL: NIVMTQSPSSLSASVGDRVTITCKASQSVSIDVGWFQQKPGKSPKLLIYHASNRYTGVPSRFSGSGSGTDFTFTISSLQPEDFATYFCQQDYSSPYTFGQGTKLEIKR | 
